Measured values reported in paper PMC5880107, “The Sequence-specific Peptide-binding Activity of the Protein Sulfide Isomerase AGR2 Directs Its Stable Binding to the Oncogenic Receptor EpCAM*^([image sbox.jpg])” (Molecular & Cellular Proteomics : MCP, 2018).

B1: His-AGR2 WT (mature AGR2, amino acids 21-175, N-terminal 6xHis tag; plasmid pmAGR2) [human] / His-EpEX-CO, extracellular domain of EpCAM (amino acids 24-265), N-terminal 6xHis tag [human] (parent)
chain 1: RDTTVKPGAKKDTKDSRPKLPQTLSRGWGDQLIWTQTYEEALYKSKTSSKPLMIIHHLDECPHSQALKKVFAENKEIQKLAEQFVLLNLVYETTDKHLSPDGQYVPRIMFVDPSLTVRADITGRYSNRLYAYEPADTALLLDNMKKALKLLKTEL
chain 2: QEECVCENYKLAVNCFVNNNRQCQCTSVGAQNTVICSKLAAKCLVMKAEMNGSKLGRRAKPEGALQNNDGLYDPDCDESGLFKAKQCNGTSMCWCVNTAGVRRTDKDTEITCSERVRTYWIIIELKHKAREKPYDSKSLRTALQKEITTRYQLDPKFITSILYENNVITIDLVQNSSQKTQNDVDIADVAYYFEKDVKGESLFHSKKMDLTVNGEQLDLDPGQTLIYYVDEKAPEFSMQGLK

Variants of: B1
Assay: ELISA (His-EpCAM solid phase; His-AGR2 mobile phase)
Details: with His-EpEX-CO, point at 0.5 μg AGR2 (highest dose of the titration), +DTT Blocking (DTT only in the blocking step, before AGR2 binding), read off a plot

Row | response | Variant
1 | 110 RLU | chain 1 RDTTVKPGAKKDTKDSRPKLPQTLSRGWGDQLIWTQTYEEALYKSKTSSKPLMIIHHLDECPHSQALKKVFAENKEIQKLAEQFVLLNLVYETTDKHLSPDGQYVPRIMFVDPALTVRADITGRYSNRLYAYEPADTALLLDNMKKALKLLKTEL [chain 1 S114A]

Same assay, conditions: with His-EpEX-CO, point at 0.5 μg AGR2 (highest dose of the titration), no DTT in the blocking step, read off a plot

Row | response | Variant
2 | 160 RLU | chain 1 RDTTVKPGAKKDTKDSRPKLPQTLSRGWGDQLIWTQTYEEALYKSKTSSKPLMIIHHLDECPHSQALKKVFAENKEIQKLAEQFVLLNLVYETTDKHLSPDGQYVPRIMFVDPALTVRADITGRYSNRLYAYEPADTALLLDNMKKALKLLKTEL [chain 1 S114A]
